Assay: label from the status in PepcDB records

Question: For “MNDGKATPGEAGCRENQLLKLPGFGNFTIIDRYIARQFLTIFLFALASFAALFILINLVENLDRFLDRHISFGRILIYYLSGLPDTFLLTSPLSVLLASLFVTGKLSMQSELPALKSAGMSLSRLMKPFLLVTMAIAALNTINSCFIAPAMYDWSKGFEKRYLKKQQDNGEEPLHIRESNNRILTVAKIGPDKKSATTVSLETFNGSQIVSRIDADSLRIITRHKYWIFYNTKQRTFSKGAETLVTRAGADTLKLSLAPNTFKMIDTDPDEMNIVQHIDFIWQKARSGLPGLERATVKLHTKLALPLASMIIVLIGVPLSSKKKRSGLAVEISISLLIGLLYLGMLKTIGSLGYDGLLNPVLAAWLPDILFIIAGTFLYRSADH”, which protein production is on record?
Answer: The protein production was “failed”.

Question: Which protein production does the source give for “LDNRFNYINVPGLGGSGEHHWQTFWEQAYPEIHRVQQADWDHPICSVWVNKLQLITETCSDKPVVLIAHSLGCVTVLHAVAQRKLKGIAGAFLVAMPDAERADFPKECIGFIPVPRIVLPFPAVMIASENDPYITSPELKKWADVIQASFVSVGQRGHIGTAAQLTYWEEGQQLFRSFVEQL” here?
Answer: The protein production was “failed”.

Question: Which protein production does the source give for “MVAACKTMLTQIYEVATPAEAEAISVIGVDHVGVLVGDGAFPRELPVQKALAVMKMVRAPSVVSALFLSADVALIERMARELDPPIVHLGASSELLTPDLVVALRKSLPKTKFMRSVPVTGPEAVGVAQAYDGVVDWILLDSHRTGDVQIGAQGVTHDWSISRTIVESVRTPVILAGGLGPDNVKEAIRSVRPAGVDSKTRTDREGTHSKDLRKVEAFYRAATSG” here?
Answer: The protein production was “failed”.

Question: Which protein production does the source give for “MLRFPGQGHHNPDDVVIGLLDLAARVDEALAVQAVAFGLGADEVAVRHQIVLRHLTSPGARAFGATTGDGRLVGFVYGMPNDRTHWWSTVVEPYLRGQGHEDWLDNSFVITELHVHPHFQNHGIGRSLITTITDGAAEPRSILSAIDTESPARGLYHSLGYEDLARQVLFPSAPRPYAVMGAPLPLRRR” here?
Answer: Its protein production is “failed”.

Question: Which protein production does the source give for “MDFRRAPELIGRLQEQAVVPREQGVQRLMRLALEYWLLPVLLLAAAVRFYDLTAAAIWGDEGSSLVLSQYSLSEIWFHAARDVHPPLYFMLLRGWIELFGDGIFSIRTFSALPGIVTVGLGMWLVALLATRRAAILAGVLLALLPTAVRYSQEVRMYALLGLLLLGATLALVYWLRQPSRPGYLVSYALLMTLAFYTHYFTAFCVLAHWLYLAVSGVRAEGGGRLVTRPAWWLANAAIVLLFLPWVPELLDLLRHMDELKANGDVGWEPVVTWSSLPAMVWQLLIQDEGDNLPGALFVGMPLLLLAVCSVLAWRDGAPARFGGLLASFTLLPLLLVFAVSFASPVFIERYLTAYALGLPMIMAVLIDRWLKTARLVALALLLGFVGLEAVGLKNNIDVDANDQISVMVDYVNRHYVAGDRIVISDMLWYLSYVYYNRTDAQPMLYTPPLPGGTSSRPNAYGFGTLIDHPDQVYLDQLSALSVGSGRYWLVGSDDQSEEFAPLPQGWHKVGQFAAGGTRARLFVLCGSAAGASCAGQ” here?
Answer: The protein production was “failed”.

Question: Which protein production does the source give for “GLINTHAHVGMSASKGLFDDVDLDSFLKKTFEYDSDRTSTGIFNSAKLGMYEMIGNGITAFVDLYYSEDIIAKAAEEIGIRAFLSWVTLDKELTTQIGDPVENAENFIRNHVGNKYVVPSVGVQGIYVANDDTFRRAMDLAEKYGTILHMHLSETRKEVYDAVKKLGERPIEHLHNIGILNKRVLAAHCVWATYHEVRLLSKDGVNVSWNSISNFKLGTGGIPPIPEMMRENVNVTIGTDSNGSNNSLDMFQAMKFSAISVKNYRWDASLMKAQEILDMATRNAARALQLNAG” here?
Answer: Its protein production is “failed”.

Question: Which protein production does the source give for “MPIIIDKDLPARKVLQEENIFVMTKERAETQDIRALKIAILNLMPTKQETEAQLLRLIGNTPLQLDVHLLHMESHLSRNVAQEHLTSFYKTFRDIENEKFDGLIITGAPVETLSFEEVDYWEELKRIMEYSKTNVTSTLHICWGAQAGLYHHYGVQKYPLKEKMFGVFEHEVREQHVKLLQGFDELFFAPHSRHTEVRESDIREVKELTLLANSEEAGVHLVIGQEGRQVFALGHSEYSCDTLKQEYERDRDKGLNIDVPKNYFKHDNPNEKPLVRWRSHGNLLFSNWLNYYVYQETPYVL” here?
Answer: The protein production was “not failed”.

Question: Which protein production does the source give for “MRRLLITILIFLLSNAGCCAPVFEIIPLGVYGGLKDGNLSAYLIKAIESKNYTALDGGTLVRGLEVAVDRQSLPSKKVDDLLQKHIPAYLISHAHLDHVMGLVMAQPELREKQTIMAREETMQALQDNIFNWSVWGNFGDSGAIPHLNFQHYQTLPLLQWLAIPDTDLHVKVFPLSHSGMASSAFLIRYKTEYALYFGDTGADRIEKSTNMENIWKEIAPLIRNKQLHAIMLECSFLNSQPDDKLFGHLKPNLFMSELRHLASIVDPFDSRNSLRGLPVVVTHIKPKLADFSNTNEDTEKQVINELSQENDIGVELIKPEQGITLSL” here?
Answer: Its protein production is “failed”.

Question: Which protein production does the source give for “AEITEVRIYKSKGNGSVKAYASVSFDNEFVVKGLKVVEGEKGLWVSMPSRRMKDGSFQDVFHPVSREARDKIVDAVLKAYQEQE” here?
Answer: Its protein production is “failed”.

Question: For “MGLASMESWIDLLEWPAMLVTVVAAWCIGSHRPGRRMVGFCCFIASNILWSVWGWHAQAWALIVLQLVLCLMNLRGWRKNKRASRKAPSEKVQGGADATPYHLLTSTSRGQPENPS”, which protein production is on record?
Answer: Its protein production is “failed”.

Question: With “MKRLMTSLAALSLTAGLAHAQAADVPDNLEKLSNFQSTGATDFTFVEQGGDFADGIKRNLERIKLPQGFRIGLYAVVPDARHMAVGPQGIVTFVGTRKDKVWAVTDRNKDRVADEVKDFAPSLRFTIPNGPCFSKDGFLYIAEQNRVLLFPAAEFFYESGDVAAFNLVKQGELIPVEEESFNHTARVCDIGPDGMIYITLGQPFNVPAPEKRELYDKWGIGGIVRMKTDGTGREVFARGIRNSVGMDIDPETGNVWFTDNQVDGMGDDIPPGEINRATEPGQNFGFPWYGGGSIRTNEYKDEEPPADAVMPVVEMDAHAADLGMMFYTGSMFPEEYRGAIFSAQHGSWNRTTPVGARVMVTTLAEDGTATTKPFAEGWIDENGEYLGRPVDVAQLRDGSILVSDDLVGAIYRIWYQPE” as the sequence, how does the protein production read?
Answer: The protein production was “failed”.

Question: For “MYGGIYVNNGYSPMSSNQQNVSVEHDIIMRGRRVIDITGVKQVESFDSEEFLLETVMGFLTIRGQNLQMKNLDVEKGVVSIKGKVHEMLYIDENQGEKTKGFFSKLFKLEHHHHHH”, which protein production is on record?
Answer: Its protein production is “not failed”.

Question: Which protein production does the source give for “MRRLRFSPRSSFARTLLLIVTLLFASLVTTYLVVLNFAILPSLQQFNKVLAYEVRMLMTDKLQLEDGTQLVVPPAFRREIYRELGISLYSNEAAEEAGLRWAQHYEFLSHQMAQQLGGPTEVRVEVNKSSPVVWLKTWLSPNIWVRVPLTEIHQGDFSPLFRYTLAIMLLAIGGAWLFIRIQNRPLVDLEHAALQVGKGIIPPPLREYGASEVRSVTRAFNHMAAGVKQLADDRTLLMAGVSHDLRTPLTRIRLATEMMSEQDGYLAESINKDIEECNAIIEQFIDYLRTGQEMPMEMADLNAVLGEVIAAESGYEREIETALYPGSIEVKMHPLSIKRAVANMVVNAARYGNGWIKVSSGTEPNRAWFQVEDDGPGIAPEQRKHLFQPFVRGDSARTISGTGLGLAIVQRIVDNHNGMLELGTSERGGLSIRAWLPVPVTRAQGTTKEG” here?
Answer: Its protein production is “failed”.

Question: Which protein production does the source give for “MSRKSAPSSTAAPAPKLAADRIRATARELFYREGIRAVGVDAIVSAAGVTKPSLYRSFSSKDELAASYLRDYETEFWSRFDAGAQRHPDDPRAQLRLYLESLAERAANAGPYRGCGLSNAAVEYPDPDHPARLVAEAHKRELRRRLIDMARRMGAREPEVLGDGLMLLIEGAFISGQLFHGDGPARHVARLADRLIEASL” here?
Answer: Its protein production is “failed”.

Question: For “PLNRLGHKIYQHSGKWLQETAAEKLNQRDQLINPGHAQVLILGMGRIGTGAYDELRARYGKISLGIEIREEAAQQHRSEGRNVISGDATDPDFWERILDTGHVKLVLLAMPHHQGNQTALEQLQRRNYKGQIAAIAEYPDQLEGLLESGVDAAFNIYSEAGSGFARHVCKQLEPQFTSIK”, which protein production is on record?
Answer: Its protein production is “not failed”.

Question: Which protein production does the source give for “MLLYMRFTENFERAKKEALMSLEIALRKGEVDEDIIPLLKKINSIENYFTTSSCSGRISVMEMPHFGDKVNAKWLGKWHREVSLYEVLEAIKKHRSGQLWFLVRSPILHVGAKTLEDAVKLVNLAVSCGFKYSNIKSISNKKLIVEIRSTERMDVLLGENGEIFVGEEYLNKIVEIANDQMRRFKEKLKRLESKINALNR” here?
Answer: The protein production was “not failed”.

Question: With “MLILAIPGYIYYHQQQEQAANQQLGQILPVYEQGNFQQALDGTGDRAGLLAIADDYGGTDAGNLATFYAANALYQRDEYDRALTYYQRFEKEKDFIGASAYAAQAAIQETRGSFERAGGLYEQAASQYQNKLTAPRYLLNAGQAYEEAGQYEAAIGVYERIQEEYPDSEQASNAERYLARAKVHQGSTSSS” as the sequence, how does the protein production read?
Answer: The protein production was “failed”.

Question: For “MYTKQHTIKAPVKVSGVGLHTGAQVNLTFVPAPINHGILFKRVDLPDQPVVECDVDNVVDVSRGTSIEKNGARINTVEHALAALVGLQIDNILIELDGPEIPIMDGSSLPFIEAINAIGLEEQNALRNFFEVPHGIFFQDAEKNIELAALPLDDYRVTVMVDYNSPVLGSQHATLNNINQFEKEIASCRTFCFLHELEMLHKQNLIKGGDLNNAIVIVDRIVKDDELDSLAKLFGKDKVEVKKEGILNNIELRYKNEPARHKLLDVVGDLALVGRPLKAQIMAARPGHASNVAFAKKLKRVMMDSRQKAPHYDITQPSVLDVNQIYKLLPHRYPFKLVDKIVHLDENMIIGVKNVTINEPFFEGHFPGNPVMPGVLQIEAMAQTGGIFVMQSVPDPENYWTYFLSIESAKFRRMVVPGDTLVFKCELTAPIKRGIAKMQGQAYVGGNLVCEASLTASIVKKK”, which protein production is on record?
Answer: Its protein production is “failed”.

Question: For “MAEKNAYTVAQLADEYFERMIAGRWKHPNIVRSRIEKDIKPAIGSLKVEDVKPRHIDDVLKAVMKRGAPSIANDTLRWLKRMFNYAIKRHIIEYNPAAAFDPGDAGGKEKSLEHHHHHH”, which protein production is on record?
Answer: The protein production was “not failed”.

Question: For “MRASSSQGTPMNTALHDNREVVTVCLQHKVLDGSPGTPAAQPPRWKQALLTYLVICPMTMVIPQLLAPLFARFPQLGGVITGNLIVNLFVILPVVFYIMPWVTRRCANWLRG”, which protein production is on record?
Answer: Its protein production is “failed”.

Question: Which protein production does the source give for “MSRRYWQLDVFAERPLTGNGLAVFDDASALDDAAMQAWTRELRQFESIFLLPGDDPRAFRARIFTLEEELPFAGHPLLGAAALLHHLRGGDNEQHWTLHLASKSVALRSVRAGSGFYAEMDQGRAEFGATPDAGTCRWFAEAFSLSANDLSGHPPRVVSTGLPYLLLPVTAEALGRARQVNDLQEALDKLGAAFVYLLDVDGREGRTWDNLGLVEDVATGSAAGPVAAYLVEYGLAARGEPFVLHQGRFLERPSRLDVQVATDGSVRVGGHVQLLARAELLTSA” here?
Answer: Its protein production is “not failed”.

Question: For “MEKYEELFARIKEKAKLIDEKIFELIPEKDPRVLYEAARHYPLAGGKRVRPFVVLTSTEAVGGDPLRAIYPAVAIELIHNYSLVHDDIMDMDETRRGKPTVHRIWGVNMAILAGDLLFSKAFEAVARAEIPPEKKARVLEVIVKASNELCEGQARDLEFEKKSTVTIEEYMEMISGKTGALFEASAKVGGIIGTDNEEYIKALSSWGRNVGIAFQIWDDVLDLIADEKKLGKPVGSDIRKGKKTLIVAHFFENADEKDKQRFLKIFGKYAGDVKGRGIIEEDIKSDVMEAIDLLKKYGSIDYAAEIAKDMIKKANEALRILPKSKARMDLELLAKFIVEREY”, which protein production is on record?
Answer: The protein production was “not failed”.

Question: With “MDAMEFFRQSAGQWRSQRTTHHLAFRRAENGDSSISVEALEKDDPRVIEICTMHEVDPATAIGGAYVSWQGSMEWDRDAEGHSGTTVFALVPDDASGRSGQLLRERGYAEIVPVIGRFELDENNNLNLVTDYETMSAVEQFWFMGPSLRLRASTVTRFGGLSTAAFCAEVRQTEAAADSEPLKADQLYSSLGW” as the sequence, how does the protein production read?
Answer: Its protein production is “failed”.

Question: With “MRLRNWPRWQRWLNRRIPPASSVELNQRRVFILPTRQGGAFGLALLVMLLAAINYQNSLAYGLTFLLLSLGVVTILHTYRNLAGLRLTALGADPVFAGERAGFRVRLESPRRARQAIAVGWPERPLEYADLAGDAAAEVLLFHPTERRGWLRPGRLRVESRFPLGLLVAWSWVDLRQQALVYPRPQAGEPLLAPGAEDAEDQGRALASAGVDDYQGLRAYQPGDSRRRLHWKAFSRGQGLLVKDFAALGGEDLWLEFERLGGDLESRLGRLCHAVLELSARQQPYGLALPGTRLQPASGEAQREACLRALALFGAAR” as the sequence, how does the protein production read?
Answer: The protein production was “failed”.

From a protein production outcome set (Wang et al. 2014)
